This note sets out measurements from patent publication US20230190881A1 (BIOTEST, published 2023).

For this assay, the target named is T1, human serum albumin (HSA) (human, UniProt P02768 25-609).
T1 construct: also called human albumin; Albiomin 20%
In words: FVIII antigen ELISA on plasma samples; albumin binding inferred from reduced detection. On the technique in general: ELISA stands for enzyme-linked immunosorbent assay.

B1: AD2CD2_SC (other)
chain: ATRRYYLGAVELSWDYMQSDLGELPVDARFPPRVPKSFPFNTSVVYKKTLFVEFTDHLFNIAKPRPPWMGLLGPTIQAEVYDTVVITLKNMASHPVSLHAVGVSYWKASEGAEYDDQTSQREKEDDKVFPGGSHTYVWQVLKENGPMASDPLCLTYSYLSHVDLVKDLNSGLIGALLVCREGSLAKEKTQTLHKFILLFAVFDEGKSWHSETKNSLMQDRDAASARAWPKMHTVNGYVNRSLPGLIGCHRKSVYWHVIGMGTTPEVHSIFLEGHTFLVRNHRQASLEISPITFLTAQTLLMDLGQFLLFCHISSHQHDGMEAYVKVDSCPEEPQLRMKNNEEAEDYDDDLTDSEMDVVRFDDDNSPSFIQIRSVAKKHPKTWVHYIAAEEEDWDYAPLVLAPDDRSYKSQYLNNGPQRIGRKYKKVRFMAYTDETFKTREAIQHESGILGPLLYGEVGDTLLIIFKNQASRPYNIYPHGITDVRPLYSRRLPKGVKHLKDFPILPGEIFKYKWTVTVEDGPTKSDPRCLTRYYSSFVNMERDLASGLIGPLLICYKESVDQRGNQIMSDKRNVILFSVFDENRSWYLTENIQRFLPNPAGVQLEDPEFQASNIMHSINGYVFDSLQLSVCLHEVAYWYILSIGAQTDFLSVFFSGYTFKHKMVYEDTLTLFPFSGETVFMSMENPGLWILGCHNSDFRNRGMTALLKVSSCDKNTGDYYEDSYEDISAYLLSKNNAIEPRSFSQNPPVLSKNNAIEPRSFSQNSRHPSLAEAKEAANAELDSYGVSDFYKRLIDKAKTVEGVEALKDAILAALPGSGGSGGSGGSGSGSKNNAIEPRSFSQNSRHPSGSGGSGGSGGSGSLAEAKEAANAELDSYGVSDFYKRLIDKAKTVEGVEALKDAILAALPSKNNAIEPRSFSQNSRHPSQSDQEEIDYDDTISVEMKKEDFDIYDEDENQSPRSFQKKTRHYFIAAVERLWDYGMSSSPHVLRNRAQSGSVPQFKKVVFQEFTDGSFTQPLYRGELNEHLGLLGPYIRAEVEDNIMVTFRNQASRPYSFYSSLISYEEDQRQGAEPRKNFVKPNETKTYFWKVQHHMAPTKDEFDCKAWAYFSDVDLEKDVHSGLIGPLLVCHTNTLNPAHGRQVTVQEFALFFTIFDETKSWYFTENMERNCRAPCNIQMEDPTFKENYRFHAINGYIMDTLPGLVMAQDQRIRWYLLSMGSNENIHSIHFSGHVFTVRKKEEYKMALYNLYPGVFETVEMLPSKAGIWRVECLIGEHLHAGMSTLFLVYSNKCQTPLGMASGHIRDFQITASGQYGQWAPKLARLHYSGSINAWSTKEPFSWIKVDLLAPMIIHGIKTQGARQKFSSLYISQFIIMYSLDGKKWQTYRGNSTGTLMVFFGNVDSSGIKHNIFNPPIIARYIRLHPTHYSIRSTLRMELMGCDLNSCSMPLGMESKAISDAQITASSYFTNMFATWSPSKARLHLQGRSNAWRPQVNNPKEWLQVDFQKTMKVTGVTTQGVKSLLTSMYVKEFLISSSQDGHQWTLFFQNGKVKVFQGNQDSFTPVVNSLDPPLLTRYLRIHPQSWVHQIALRMEVLGCEAQDLYSKNNAIEPRSFSQNSRHPSLAEAKEAANAELDSYGVSDFYKRLIDKAKTVEGVEALKDAILAALPGSGGSGGSGGSGSGSKNNAIEPRSFSQNSRHPSGSGGSGGSGGSGSLAEAKEAANAELDSYGVSDFYKRLIDKAKTVEGVEALKDAILAALP
As to B1, the binding result is given as “binds”.

B2: AD2CD2-19M_SC (other)
chain: ATRRYYLGAVELSWDYMQSDLGELPVDARFPPRVPKSFPFNTSVVYKKTLFVEFTDHLFSIAKPRPPWMGLLGPTIQAEVYDTVVITLKNMATHPVSLHAVGVSYWKASEGAEYDDQTSQREKEDDKVFPGGSHTYVWQVSKENGPMASDPQCLTYSYLSHVDLAKDLNSGLIGALLVCREGSLAKEKTQTLHKFILLFAVFDEGKSWHSETKDSLMQDRDAASARAWPKMHTVNGYVNRSLPGLTGCHRKSVYWHVIGMGTTPEVHSIFLEGHTFLVRDHRQASLEISPITFLTAQTLLMDLGQFLLFCHISSHQHDGMEAYVKVDSCPEEPQLRMKNNEEAEDYDDDLTDSEMDVVRFDDDNSPSFIQIRSVAKKHPKTWVHYIAAEEEDWDYAPLVLAPDDRSHKSQYLNNGPQRIGRKYKKVRFMAYTDETFKTREAIQHESGILGPLLYGEVGDTLLIIFKNQASRPYNIYPHGITDVRPLYERRLPKGVKHLKDFPILPGEIFKYKWTVTVEDGPTKSDPRCLTRYYSSHVNMERDLASGLIGPLLICYKESVDQRGNQIMSDKRNVILFSVFDENRSWYLTENIQRFLPEPAGVQLEDPEFQASNIMHSINGYVFDSLQLSVCLHEVAYWYILSIGAQTDFLSVFFSGYTFKHKMVYEDTLTLFPFSGETVFMSMENPGNWILGCHNSDFRNRGMTALLKVSSCDKNTGDYYEDSYEDISASLLSKNNAIEPRSFSQNPPVLSKNNAIEPRSFSQNSRHPSLAEAKEAANAELDSYGVSDFYKRLIDKAKTVEGVEALKDAILAALPGSGGSGGSGGSGSGSKNNAIEPRSFSQNSRHPSGSGGSGGSGGSGSLAEAKEAANAELDSYGVSDFYKRLIDKAKTVEGVEALKDAILAALPSKNNAIEPRSFSQNSRHPSQSDQEEIDYDDTISVEMKKEDFDIYDEDENQSPRSFQKKTRHYFIAAVERLWDYGMSSSPHVLRNRAQSGSVPQFKKVVFQEFTDGSFTQPLYRGELNEHLGLLGPYIRAEVEDNIMVTFRNQASRPYSFYSSLISYEEDQRQGAEPRKNFVKPNETKTYFWEVQHHMAPTKDEFDCKAWAYFSDVDLEKDVHSGLIGPLLVCHTNTLNPAHGRQVTVQEFALFFTIFDETKSWYFTENMERNCRAPCNIQMEDPTFKENYRFHAINGYIMDTLPGLVMAQDQRIRWYLLSMGSNENIHSIHFSGHVFTVRKKEEYKMALYNLYPGVFETVEMLPSKAGIWRVECLIGEHLHAGMSTLFLVYSDKCQTPLGMASGHIRDFQITASGQYGQWAPKLARLHYSGGINAWSTKEPFSWIKVDLLAPMIIHGIKTQGARQKFSSLYISQFIIMYSLDGKKWQTYRGNSTGTLMVFFGNVDSSGIKHNIFNPPIIARYIRLHPTHYSIRSTLRMELMGCDLNSCSMPLGMESKAISDAQITASSYFTNMFATWSPSKARLHLQGRSNAWRPQVNNPKEWLQVDFQKTMKVTGVTTQGVKSLLTSMYVKEFLISSSQDGHQWTLFFQNGKVKVFQGNQDSFTPVVNTLDPPLLTRYLRIHPQSWAHQIALRMEVLGCEAQDLYSKNNAIEPRSFSQNSRHPSLAEAKEAANAELDSYGVSDFYKRLIDKAKTVEGVEALKDAILAALPGSGGSGGSGGSGSGSKNNAIEPRSFSQNSRHPSGSGGSGGSGGSGSLAEAKEAANAELDSYGVSDFYKRLIDKAKTVEGVEALKDAILAALP
notes: also called de-immunized FVIII-ABD fusion molecule
Regarding B2, the binding result was “binds”.
